Data taken from the nanobody polyreactivity screen of Harvey et al. (2022).

Assay: yeast display, Sf9 membrane polyspecificity reagent, FACS + sequencing; frameworks hold sequencing errors
How it was run: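 Sorting gates, low and high (top ~1%), were placed on anti-HA fluorescence to track expression and on streptavidin fluorescence to track reagent binding. A clone's polyreactivity label is taken from the gate it came out of. The reagent was 10% biotinylated, detergent-solubilized Sf9 membrane, applied for 1 hour at 4 °C to galactose-induced yeast display cells.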

Sequence | polyreactivity (PSR sort gate)
QVQLQESGGGLVQAGGSLRMRCAASRNISGSSDLGWYHQAPGKEREFVASITSGGTTYYADSVKGRFTISRDNAKNTVYLQMNSLKPEDTAVYYCAVGDPADAEFGYWGQGTQVTVSS | low polyreactivity
QVQLVESGGGLVQAGGSLRLSCAASGRTIANNAMGWYRQAPGKERQLVAVITNSGRTYYADSVKGRFTISRDNAKNTVYLQMNSLKPEDTAVYYCAVRYFDRGGSEHPVTFYWGQGTQVTVSS | high polyreactivity
QVQLVESGGGLVQAGGSLRLSCAASGFTFQYNAMGWYRQAPGKERELVAAITWTGTSTYADSVKGRFTISRDNATNTVYLQMNSLKPEDTAVYYCADSYYAPRWFRYDYWGQGTQVTVSS | low polyreactivity
QVQLVESGGGLVQAGGSLRLSCAASGGIFWYYAMGWYRQAPGNERELVATISTGGSTKYADSVKGRFTISRDNAKNTVYLQMNSLNPDDTAVYYCNKVFPNLYIYVVRGLIEMDYWGQGTQVTVSS | low polyreactivity
QVQLVESGGGLVQAGGSLRLSCAASGIIFGYYAMGWYRQAPGKERELVAAISRGGNTNYADSVKGRFTISRDNAKNTVYLQMNSLKPEDTAVYYCAADFWSRIKYFYAVDVDYWGQGTQVTVSS | low polyreactivity
QVQLVESGGGLVQAGGSLRLSCAASGFTFAYNAMGWYRQAPGKERELVAAISWSGGTTYYADSVKGRFTISRDNAKNTVYLQMNSLKPEDTAVYYCAKRGIGYATSWRGSDYWGQGTQVTVSS | high polyreactivity
QVQLVESGGGLVQAGGSLRLSCAASGRTFASYAMGWYRQAPVKERELVARISKSGGSTYYADSVKGRFTISRDNAKNTVYLQMNSLKPEDTAVYYCAATRYPYLYRSEVGSDYWGQGTQVNVSS | low polyreactivity
QVQLVESGGGLVQAGGSLRLSCAASGFILLDYAMGWYRQAPGKERELVAAISWSGARTYYADSVKGRFTISRDNAKNTVYLQMNSLKPEDTAVYYCAAKGQRGYWWGFDYWGQGTQVTVSS | low polyreactivity
QVQLVESGGGLVQAGGSLRLSCAASGRTFYSNAMGWYRQAPGKERELVAGISKRGTITYYADSVKGRFTISRDNAKNTVYLQMNSLKPEDTAVYYCAVGRPSGWSYYTGGDYWGQGTQVTVSS | high polyreactivity
QVQLVESGGGLVQAGGSLRLSCAASGIISYYYAMGWYRQAPGKERELVAAISSSGNTYYADSVKGRFTISRDNAKNTVYLQMNSLKPEDTAVYYCAAESYGYYAADDDNYLTWYDYWGQGTQVTVSS | high polyreactivity
QVQLVESGGGLVQAGGSLRLSCAATGIIFGDNAMGWYRQAPGKERELVAAFTIGGTSTYNADSVKGRFTISRDNAKNTVYLQMNSQKPEDTAVYYCAKTILYDCDYWGQGTQVTVSS | low polyreactivity
QVQLVESGRGLVQAGGSLRLSCAPSGRIFKYYAKGWYRQAPGKERELVATITSGANTNYADSVKGRFTISRDNAKNTVYLQMNSLKPEDTAVYYCNADLDPRDYGFDYWGQGTQVTVSS | high polyreactivity
QVQLVESGGGLVQAGGSLRLSCAASGSIFKFYAMGWYRQAPGKERELVAAINYNDINTYYADSVKGRFTISRDNAKNTVYLQMNRLKPEDTAVYYCNAELNVQYLYGYTGEYDYWGQGTQVTVSS | low polyreactivity
QVQLLESGGGLVQAGGSLRLSCAASGRIFYRYAMGWYRKAPGKERELVPAISRTGSRTYYADSVKGRFTISRDNAKNTVYLQMNSLKPEDTAVYYCNKVSAPAEFRSRGYWGQGTQVTVSS | high polyreactivity
QVQLVESGGGLVQAGGSLRLSCAASGSTFRRYAMGWYRQAPGKERELGAAISRSGGTTYYADSVKGRFTISRDNAKNTVYLQMNSLKPEDTAVYYCNARYPVVRYDYWGQGTQVTVSS | high polyreactivity
QVKLVESGGGLVQAGGSLRLSCADSGRTFYYNTMGWYRQAPGKERELVADITISGGSTYYADSVKGRFTISRDNAKNTVYLQMKSLKPEDTAVYYCAAGWFSLSTAYYHKRVGYNYWGQGTQVTVSS | high polyreactivity
QVQLVESGGGLVQAGGSLRLSCAASGSTIERYAMGWYRHAPGKERELVAAIRWSGGSTYYADSVKGRFTISRDNAKNTVYLQMNSLKPEDTAVYYCAASRSNADWFDSWGQGTQVTVSS | high polyreactivity
QVQLVESGGGLVQAGGSLRLSCAASGRIFYPYAMGWYRPAPGKERELVAVINGSGGSTYYADSVKGRFTISRDNAKNTVYLPMNSLKPEDTAVYYCAADYPKTYTSKFNYWGQGTQVTVSS | high polyreactivity
QVQLVESGGGLVQAGGSLRLSCAASGITFGRYAMGWYRQAPGKERELVAAISRGSGSTYYADSVKGRFTISRDNAKNTVYLQMNSLKPEDTAVYYCAKVVRVGMGYWGQGTQVTVSS | high polyreactivity
QVQLVESGGGLVQAGGSLRLSCAASGFTFTYYAMGWYRQAPGKERELVAAITRRGGRTYYADSVKGRFTISRDNAKNTVYLQMNSLKPEDTAVYYCNADEYGGSTGRKGRYNYWGQGTQVTVSS | low polyreactivity
QGQLVESGGGLVQAGGSLRLSCAASGSIFGINAMGWYRQAPGKERELVAAISGSTSRTYYADSVKGRFTISRDNAKKTVYLQMNSLKPEDTAVYYCAVVGLRSVTRRSDYWGQGTQVTVSS | high polyreactivity
QVQLVESGGGLVQAGGSLRLSCAASGRTLVKYAMGRYRPAPGKERELVAALTQRGGITYYADSVKGRFTISRDNAKNTVYLQMNSLKPEDTAVYYCAASLYSYRSPYTFYYWGQGTQVTVSS | high polyreactivity

Sequence | polyreactivity (PSR sort gate)
QVPLVESGGGLVQAGGSLRLSCAASGRTFTPNGMGWYRQAPGKERELVAAITYGGGITDYADSVKGRFTISRDNAKNTVYLQMNSLKPEDTAVYYCAATTLSFEGGKYWSKYDYWGQGTQVTVSS | low polyreactivity
QVQLVESGGGLVQAGGSLRLSCAAYGITFRAYAMGWYRQAPGKEREFVASISGSGGSTYSADSVKGRFTISRDNAKNTVYFQMNSLKPEDTAVYYCATRRWGLATPTRYDYWGQGTQVTVSS | high polyreactivity
QVQLVESWGGLVQAGGSLRLSCAASGLIFYYNAMAWYRQAPGKERELVAAISRRGGGTYYADSVKGRFTISRDNAKNTVYLLMNSLKPEDTAVYYCAAGSPFSPGKYDYWGQGTQVSVSS | high polyreactivity
QVQLVESGGGLVQAGGSLRLSCAASGRIFTGYAMGWNRQAPGKERELVAAISRGGSTNYADSVKGRFTISRDNAKNSVYLQMNSLKPEDTAVYYCAAGVHWDRGDYWGQGTQVTVSS | low polyreactivity
QVQLVESGGGLVQAGGSLRLSCAASGRTFGRYAMGWYRQAPGKERELVAVINGGGSTYYADSVKGRFTISRDNAKNTVYLQMKSLKPEDTAVYYCNAGYYWGQGTQVTVSS | high polyreactivity
QVQLVESGGGLVQAGGSLRLSCAASGRTFHYNVMGWYRQAPGKERELVAAITNTGGSTYYADSVKGRFTISRDNAKNTVYLQIYSLKPEDTAVYYCAAVIWGRRYGAYPYEYWGQGTQVTVSS | low polyreactivity
QVQLVESGGGLVQAGGSLRLSCAASGSTLFLYAMGWYRQAPGKERELVAAITWSGGSTYYADSVKGRFTISRDNAKKTVYLQMNSLKPEDTAVYYCAKYGRYFWNSGVDYWGQGTQVTVSS | high polyreactivity
QVQLVESGGGLVQAGGSLRLSCAASGFTFRSNAMGWYRQAPGKERELVATISSGGSTYYADSVKGRFTISRDNAKNTVYLQMNSLKPEDTAVYYCAADDLGWWFYSGGEDYDYWGQGTQVTVSS | low polyreactivity
QVQLVESGGGLVQAGGSLRLSCAASGFTFRANAMGWYRQAPGKERELVAVITGSGGRTYYADSVKGRFTISRDNAKNTVYLQMNSLKPEDTAVYYCNASGRKTNPYDYWGQGTQVTVSS | high polyreactivity
QVQLVESGGGLVQAGGSLRLTCAASGRIFVPYVMGWFRQAPGKERELVAAISSSGGSTYYADSVKGRFTISRDNAKNTVYLQMNSLKPEDTAVYYCAKPYYFHEEDHWGQGTQVTVSS | low polyreactivity
QVQLVESGGGLVQAGGSLRLSCADSGYTFGRNAMGWYRQAPGKERELVATISQRGGSTYYADSVKGRFTISLDNAKNTVYLQLNSLKPEDTAVYYCAAGPIYRYRRYYYWGQGTQVTVSS | high polyreactivity
QVQLVESGGGLVQAGGSLRLSCAASGRTFSVYTMGWYRQAPGKERELVAAISSTGRTNYADSVKGRFTISRDNAKNTVYLQMNSLKPEDTAVYYCNAGVRNSYTRQALVTAYYLYYYWGQGTQVTVSS | high polyreactivity
QDQLVESGGGLVQAGGSLRLSCAASGRTFNPYAMGSYRQAPGKERELVAAIRWRGTRTYYADSVKGRFTISRDNAKNTVYLQMNSLKPEDTAVYYCAADDPHSREMDYWGQGTQVTVSS | high polyreactivity
QVQLVESGGGLVQAGGSLRLSCAASGRTFRYNAMGWYRQAPGKERELVAAITWSGGSTYYADSVKGRFTISRDNAKNTVYLQMNSLKPEDTAVYYCAKGRRRSHPYDYWGQGTQVTVSS | high polyreactivity
QVQLVESGGGLVHAGGSHRLSCAASGSIFDVNAMGWYRPPRGKERELFAAITGTGGSTYYADSVKGRFTISRDNAKNSVYLQMYSLKPDDTSVYDCATVTGVRKYGYWGQGTQVTVSS | high polyreactivity
QVQLVESGGGLVQAGGSLRLSCAASGSTFSTYAMGWYRPAPGKERELVAAISRRGTNTYYADSVKGRFTISRDNAKNTVYLQMNSLKPEDTAVYYCAARSRSLRVYNRVYEVNEMDYWGQGTQVTVSS | low polyreactivity
QVQLVDSGGGLVQAGGSLRLICAASGFIFGKYAMGWYRQAPGKEWEFVAAITGNGGSTYYADSVKGRFTISRDNAKNTVYLQMNSLKPEDTAVYYCNADRGYRRRSGMDYWGQGTQLTVSS | low polyreactivity
QVQLVESGGGLVQAGGSLRLSCAASGSTFYTNAMGWYRPAPGKEREFVAAISWSGSSTYADSVKGRFTISRDNAKNTVYLQMNSLKPEDTAVYYCAADWFKLRTDYYWGQGTQVTVSS | low polyreactivity
QDQLVDSGGGLVQAGGSLSLICAATGLIFNRNAMGWYRQAPGKERELVASISSGGRTNYADSVKGRFTISRDNAKNTVYLQMNSLKPEDTAVYYCAAKSPRILLDYWGQGTQVTVSS | low polyreactivity
QVQLVESGGGLVQAGGSLRLSCAASGSNSVYNAMGWYRQAPGKERELVAAISWSGGRTSYADSVKGRFTISRDNAKNTVYLQMNSLKPEDTAVYYCAADELTVLWDEDYWGQGTQVTVSS | low polyreactivity
QVQLVESGGGLVQAGGSLRLSCAASGIIFKDYAMGWYRQAPGKERELVAAISWNGDRTYYADSVKGRFTISRDNAKNTVYLQMNRLKPEDTAVYYCAARFGSCFNYWGQGTQVTVSS | high polyreactivity
